Experimental data published in paper PMC3378891.

T1: FANCI (chicken, UniProt B0I564 1-1338)
T1 sequence: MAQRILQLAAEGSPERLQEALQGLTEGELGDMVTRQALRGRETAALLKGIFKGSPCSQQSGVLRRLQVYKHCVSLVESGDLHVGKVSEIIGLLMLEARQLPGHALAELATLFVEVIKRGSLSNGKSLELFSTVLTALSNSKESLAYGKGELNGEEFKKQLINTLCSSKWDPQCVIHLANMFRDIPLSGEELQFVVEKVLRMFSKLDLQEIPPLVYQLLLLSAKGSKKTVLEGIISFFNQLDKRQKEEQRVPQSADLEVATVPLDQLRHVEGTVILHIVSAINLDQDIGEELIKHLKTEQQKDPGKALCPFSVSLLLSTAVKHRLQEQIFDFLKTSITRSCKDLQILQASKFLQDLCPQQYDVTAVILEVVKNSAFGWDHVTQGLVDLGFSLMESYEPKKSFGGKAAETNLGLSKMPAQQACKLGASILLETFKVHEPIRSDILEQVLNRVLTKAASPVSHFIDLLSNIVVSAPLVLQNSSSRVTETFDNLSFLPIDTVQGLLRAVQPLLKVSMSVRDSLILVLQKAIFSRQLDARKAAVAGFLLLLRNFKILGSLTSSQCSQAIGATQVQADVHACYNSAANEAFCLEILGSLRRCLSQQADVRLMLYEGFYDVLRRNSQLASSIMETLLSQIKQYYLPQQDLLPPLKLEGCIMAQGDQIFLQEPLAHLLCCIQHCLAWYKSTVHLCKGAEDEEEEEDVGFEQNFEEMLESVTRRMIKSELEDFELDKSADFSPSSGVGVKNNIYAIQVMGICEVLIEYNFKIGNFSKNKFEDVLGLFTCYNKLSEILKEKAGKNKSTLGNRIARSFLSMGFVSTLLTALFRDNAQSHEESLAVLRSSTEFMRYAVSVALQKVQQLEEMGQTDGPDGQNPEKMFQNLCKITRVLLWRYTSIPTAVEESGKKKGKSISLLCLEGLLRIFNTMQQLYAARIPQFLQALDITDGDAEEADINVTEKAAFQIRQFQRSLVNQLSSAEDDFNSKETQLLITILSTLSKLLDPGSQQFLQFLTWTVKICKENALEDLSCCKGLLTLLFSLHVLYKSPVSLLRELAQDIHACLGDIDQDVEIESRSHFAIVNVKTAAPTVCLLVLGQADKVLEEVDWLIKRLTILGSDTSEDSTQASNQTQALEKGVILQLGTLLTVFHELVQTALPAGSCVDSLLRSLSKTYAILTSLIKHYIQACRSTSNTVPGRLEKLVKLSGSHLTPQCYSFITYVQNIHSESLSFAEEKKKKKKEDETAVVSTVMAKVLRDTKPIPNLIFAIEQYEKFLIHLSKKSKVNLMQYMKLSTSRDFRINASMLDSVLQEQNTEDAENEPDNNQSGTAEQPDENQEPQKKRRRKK

T2: GST-FANCL (chicken, UniProt Q3MUH5 1-373)
T2 sequence: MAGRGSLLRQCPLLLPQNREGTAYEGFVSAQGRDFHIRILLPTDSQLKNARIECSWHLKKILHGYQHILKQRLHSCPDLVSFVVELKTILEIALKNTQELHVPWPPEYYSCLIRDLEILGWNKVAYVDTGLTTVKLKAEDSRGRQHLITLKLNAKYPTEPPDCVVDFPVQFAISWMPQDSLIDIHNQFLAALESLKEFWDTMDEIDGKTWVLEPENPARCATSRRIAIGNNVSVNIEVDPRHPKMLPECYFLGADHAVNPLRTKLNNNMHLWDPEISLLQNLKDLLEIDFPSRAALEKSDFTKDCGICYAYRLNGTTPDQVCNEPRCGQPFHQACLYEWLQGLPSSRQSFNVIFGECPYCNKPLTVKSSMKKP


How the values were obtained:
Experiment in all cases: EMSA
[1] = molecular target: T1, FANCI
[2] = molecular target: FANCI;FANCD2 (chicken;chicken, UniProt B0I564;Q68Y81 1-1338;1-1439, |)
Sequence of FANCI;FANCD2 (Q68Y81 whole entry, one chain of several): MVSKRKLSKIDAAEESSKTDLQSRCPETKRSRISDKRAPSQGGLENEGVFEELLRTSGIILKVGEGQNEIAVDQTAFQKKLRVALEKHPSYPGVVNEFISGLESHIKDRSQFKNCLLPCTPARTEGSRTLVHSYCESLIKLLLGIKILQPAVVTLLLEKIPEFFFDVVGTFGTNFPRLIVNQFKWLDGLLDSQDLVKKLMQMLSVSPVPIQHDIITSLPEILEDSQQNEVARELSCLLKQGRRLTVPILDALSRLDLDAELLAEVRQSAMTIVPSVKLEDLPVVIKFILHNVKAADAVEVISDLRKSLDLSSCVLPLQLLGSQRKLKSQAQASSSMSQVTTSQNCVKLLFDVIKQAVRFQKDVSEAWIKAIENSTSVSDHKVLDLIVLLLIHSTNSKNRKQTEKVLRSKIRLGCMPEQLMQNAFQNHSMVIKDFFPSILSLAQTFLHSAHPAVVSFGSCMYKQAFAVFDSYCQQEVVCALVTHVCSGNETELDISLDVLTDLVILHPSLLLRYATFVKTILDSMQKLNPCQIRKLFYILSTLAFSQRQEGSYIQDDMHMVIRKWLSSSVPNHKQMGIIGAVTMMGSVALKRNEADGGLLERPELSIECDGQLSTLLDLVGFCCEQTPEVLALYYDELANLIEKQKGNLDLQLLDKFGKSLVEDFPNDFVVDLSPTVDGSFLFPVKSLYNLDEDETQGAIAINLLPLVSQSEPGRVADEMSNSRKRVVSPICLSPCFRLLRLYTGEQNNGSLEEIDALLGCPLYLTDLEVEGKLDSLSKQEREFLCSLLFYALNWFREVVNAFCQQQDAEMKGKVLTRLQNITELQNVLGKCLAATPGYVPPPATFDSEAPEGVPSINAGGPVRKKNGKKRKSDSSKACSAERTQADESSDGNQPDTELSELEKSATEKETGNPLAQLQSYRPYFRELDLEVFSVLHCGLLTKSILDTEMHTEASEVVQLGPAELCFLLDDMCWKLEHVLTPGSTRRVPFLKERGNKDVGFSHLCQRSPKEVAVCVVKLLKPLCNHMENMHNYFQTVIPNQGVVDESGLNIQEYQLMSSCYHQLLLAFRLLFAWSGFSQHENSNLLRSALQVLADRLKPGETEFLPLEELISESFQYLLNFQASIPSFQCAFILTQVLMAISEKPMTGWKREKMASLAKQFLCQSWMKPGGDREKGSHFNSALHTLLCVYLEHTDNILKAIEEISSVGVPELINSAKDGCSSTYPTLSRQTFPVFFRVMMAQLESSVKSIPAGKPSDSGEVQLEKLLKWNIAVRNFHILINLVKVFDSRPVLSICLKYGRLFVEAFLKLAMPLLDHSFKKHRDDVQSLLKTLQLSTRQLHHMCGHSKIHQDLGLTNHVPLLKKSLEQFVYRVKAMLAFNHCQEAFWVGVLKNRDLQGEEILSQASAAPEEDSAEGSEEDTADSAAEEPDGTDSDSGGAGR

[3] = molecular target: UBE2T (human, UniProt Q9NPD8 1-197)
Sequence of UBE2T (Q9NPD8 whole entry): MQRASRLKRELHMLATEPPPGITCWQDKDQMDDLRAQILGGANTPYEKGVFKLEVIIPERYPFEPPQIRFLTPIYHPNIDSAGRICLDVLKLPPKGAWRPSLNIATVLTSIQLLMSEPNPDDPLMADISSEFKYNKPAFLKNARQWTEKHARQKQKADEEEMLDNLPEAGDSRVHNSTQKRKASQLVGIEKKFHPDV

[4] = molecular target: T2, GST-FANCL

Binder | binding result [1] | binding result [2] | binding result [3] | binding result [4]
synthetic Holliday junction (HJ) (structured_DNA) DNA 1: ATCGATGTCTCTAGACAGCTGCTCAGGATTGATCTGTAATGGCCTGGGA DNA 2: GTCCCAGGCCATTACAGATCAATCCTGAGCATGTTTACCAAGCGCATTG DNA 3: TGATCACTTGCTAGCGTCGCAATCCTGAGCAGCTGTCTAGAGACATCGA DNA 4: CCAATGCGCTTGGTAAACATGCTCAGGATTGCGACGCTAGCAAGTGATC | binds | – | – | –
5' flapped DNA (structured_DNA) DNA 1: ATCGATGTCTCTAGACAGCTGCTCAGGATTGATCTGTAATGGCCTGGGA DNA 2: GTCCCAGGCCATTACAGATCAATCCTGAGCATGTTTACCAAGCGCATTG DNA 3: CAATGCGCTTGGTAAACA | – | binds | no binding | no binding
